Results: PMC6426841, “Reversible histone glycation is associated with disease-related changes in chromatin architecture” (Nature Communications, 2019)
Ends that are not written are not given here.

Biological target: T1, recombinant His6-tagged wild-type DJ-1 (UniProt Q99497 1-189)
T1 construct: DJ-1 (PARK7), wild type, expressed from the plasmid pET3a-His-DJ1; No removal of the His6 tag is described; The plasmid pET3a-His-DJ1 (Addgene 51488) tells the exact construct; also called PARK7; recombinant DJ-1; source: E. coli Rosetta (DE3), purified (Ni2+-NTA agarose, desalting)
T1 sequence (looked up): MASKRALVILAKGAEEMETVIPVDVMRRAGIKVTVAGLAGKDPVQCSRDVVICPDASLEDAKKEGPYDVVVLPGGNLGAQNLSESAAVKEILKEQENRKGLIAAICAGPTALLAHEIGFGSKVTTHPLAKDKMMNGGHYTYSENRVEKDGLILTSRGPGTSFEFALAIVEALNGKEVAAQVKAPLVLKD
Assay: pull-down; biotinylated H3 (1-18) peptide, glycated or not, incubated with recombinant DJ-1 at 4 °C for 2 h; peptide pulled down on BSA-blocked streptavidin magnetic beads, washed 3 times with 1x PBS pH 7.4, boiled; western blot with anti-DJ-1
Details: both partners purified

- binding result: binds
B1: glycated (MGO-treated) biotinylated H3 N-terminal tail peptide (residues 1-18) (peptide, UniProt Q71DI3 2-19, looked up)
peptide: ARTKQTARKSTGGKAPRK
modifications: not fully specified (N-terminus, C-terminus); also: MGO glycation adducts, sites not given here
notes: histone H3 N-terminal tail, residues 1-18; The methods speak of 'N-terminal biotinylated H3 peptides', the results of a C-terminal biotin; also called glycated H3 tail; glycated biotin-H3 tail; source: synthetic peptide (Fmoc-SPPS, RP-HPLC purified), treated with MGO at 1:3 peptide:MGO, 37 °C, 30 min; not shown: biotin, C-terminal, kept
